Results: article PMC10787225 (Computational and Structural Biotechnology Journal, 2023)

Key:
[1] = Thioflavin T (ThT) aggregation assay; format: physicochemical; conditions: for ThT fluorescence of peptide alone: 50 mM Tris, pH 8.5, 37 °C, 40 µM ThT; for Shape of ThT time course / kind of aggregates: 20–550 µM peptide; for Shape of ThT time course / kind of aggregates / ThT / ThT fluorescence time course: 20 mM NaPi, pH 7.4, 50 mM NaCl, 37 °C; for ThT: peptide 20–550 µM, up to 85 h, 300 rpm, glass bead; for ThT / ThT fluorescence time course: 25 µM ThT, triplicate
Procedure: All ThT aggregation assays were done in Greiner 96-well half-area, clear bottom, low-binding plates. The measurements themselves were done in a BMG CLARIOstar plate reader at 37 °C and 300 rpm shaking in orbital mode with one glass bead (0.75–1 mm, Roth) per well. Wells with samples were always surrounded by wells filled with liquid, either other samples or 150 μl water, to counter potential artefacts due to evaporation. […] Final concentrations of 25 µM ThT and 0.04% sodium azide (NaN3) were added. The plate was sealed with sealing tape and put into the plate reader, heated to 37 °C, and ThT fluorescence was read in 1000 cycles of 300 s each using bottom optics with excitation at 448 nm (10 nm bandwidth) and emission at 482 nm (10 nm bandwidth). […] Samples contained 40 µM ThT and 0.04% NaN3.
(§1) Fig. 4 Test set of eight protein segments. (A) List of the investigated peptides. Underlined stretches in the peptide sequences correspond to the predicted amyloidogenic β-hairpins. A peptide was considered ‘soluble’ when no visible precipitation occurred upon dissolution of the lyophilized peptide in 20 mM NaPi, pH 7.4, 50 mM NaCl, to a final concentration of 20 µM. […] (B) Conformations of investigated segments (red) in the context of their source proteins.

PAP(248−286) = test: ThT aggregation assay and AFM of PAP(248−286) in presence of added peptide; format: biochemical, human; conditions: 500 µM PAP(248−286), added peptide 25–100 µM, 50 mM Tris, pH 8.5, 37 °C, 40 µM ThT
Procedure: (§2) All ThT aggregation assays were done in Greiner 96-well half-area, clear bottom, low-binding plates. The measurements themselves were done in a BMG CLARIOstar plate reader at 37 °C and 300 rpm shaking in orbital mode with one glass bead (0.75–1 mm, Roth) per well. Wells with samples were always surrounded by wells filled with liquid, either other samples or 150 μl water, to counter potential artefacts due to evaporation. […] Final concentrations of 25 µM ThT and 0.04% sodium azide (NaN3) were added. The plate was sealed with sealing tape and put into the plate reader, heated to 37 °C, and ThT fluorescence was read in 1000 cycles of 300 s each using bottom optics with excitation at 448 nm (10 nm bandwidth) and emission at 482 nm (10 nm bandwidth). […] PAP(248−286) and SEM1(86−107) were kept at constant concentrations of 500 and 300 µM, respectively. […] Samples contained 40 µM ThT and 0.04% NaN3.
(§3) For AFM imaging, 2 μl samples were taken out of the wells at the end of the ThT aggregation assays, put onto a freshly cleaved muscovite mica surface and dried during incubation for 10 min under the clean bench. Subsequently, the samples were washed with 100 μl ddH2O in three steps and dried with a stream of N2 gas. Imaging was performed in intermittent contact mode (AC mode) in a JPK NanoWizard 3 atomic force microscope using a silicon cantilever with silicon tip (OMCL-AC160TS-R3, Olympus) with a typical tip radius of 9 ± 2 nm, a force constant of 26 N/m and resonance frequency around 300 kHz. The images were processed using JPK DP Data Processing Software (version spm-5.0.84).

SEM1(86−107) = test: ThT aggregation assay and AFM of SEM1(86−107) in presence of added peptide; format: biochemical, human; conditions: 300 µM SEM1(86−107), added peptide 25–100 µM, 50 mM Tris, pH 8.5, 37 °C, 40 µM ThT
Procedure: as §2, §3

β-wrapin AS10 [2] = test: 1H-15N HSQC NMR detection of β-hairpin formation upon AS10 binding; conditions: 25 °C; for NMR signature of β-hairpin folding coupled to AS10 binding (1H–15N HSQC of 15N-AS10): 100 µM 15N-AS10 mixed with 20% molar excess of peptide, pH 7.4; for NMR β-hairpin: 100 µM 15N-AS10 with 20% molar excess of peptide, 20 mM sodium phosphate, pH 7.4, 50 mM NaCl
Procedure: The NMR spectra were acquired at 25 °C using VNMRS instruments (Varian) at proton frequencies of 800 and 900 MHz, each equipped with a cryogenically cooled Z-axis pulse-field-gradient (PFG) triple resonance probe. The sample buffer was 20 mM sodium phosphate, pH 7.4, 50 mM NaCl, supplemented with 10% D2O. For detection of complex formation, samples contained 100 μM ^15N-labeled AS10, expressed and purified as described, [43], and a 20% excess of the unlabeled peptide. For determination of β-sheet registries, NMR samples contained ^13C^15N-labeled fusion constructs in concentrations between 360–700 μM. Backbone assignments were obtained using BEST-TROSY experiments. Nuclear Overhauser effect (NOE) based distance restraints for β-sheet registry determination were derived from 3D (^1H–^1H-^15N)-NOESY-HSQC (120 ms mixing time) and (^1H–^13Cali-^1H)-HSQC-NOESY (100 ms mixing time) experiments. NMR data were processed using NMRPipe and analyzed with CcpNMR [50].
To test for β-hairpin formation in the peptides upon binding to AS10 we performed NMR spectroscopy. ^1H–^15N HSQC NMR spectroscopy using ^15N-labeled AS10 (^15N-AS10) and unlabeled binding partner leads to characteristic changes upon β-hairpin folding coupled to binding. These include a great increase in resonance dispersion, appearance of four amide proton resonances in the glycine region (^15N chemical shift <110 ppm) stemming from Gly-13 and Gly-14 in the two AS10-subunits, as well as appearance of amide proton resonances with shift values typical for β-sheet conformation (high ^1H and high ^15N chemical shifts).

[3] = Atomic force microscopy (AFM) of samples at the end of ThT aggregation assays; format: physicochemical; conditions: for AFM aggregate morphology: end of ThT aggregation assay in 20 mM NaPi, pH 7.4, 50 mM NaCl, dried on mica; for AFM aggregate morphology of individual peptide: end of ThT assay at moderate peptide concentrations without ThT fluorescence, 50 mM Tris, pH 8.5
Procedure: as §3

[4] = Solubility by visible precipitation upon dissolution of lyophilized peptide; conditions: aqueous buffer, µM concentrations, neutral pH; visual
Procedure: as §1

β-wrapin AS10 [5] = test: Isothermal titration calorimetry (ITC) of peptide binding to AS10; conditions: 30 °C, 30 µM AS10 in cell, peptide titrated from syringe, 20 mM sodium phosphate, pH 7.4, 50 mM NaCl, 1:1 binding model
Procedure: ITC was performed at 30 °C using a Microcal iTC200 calorimeter (GE Healthcare). AS10 was filled into the cell at a concentration of 30 µM in 20 mM sodium phosphate, pH 7.4, 50 mM NaCl. Peptides were titrated from the syringe in approximately 10-fold higher concentrations. Heats of post-saturation injections were averaged and subtracted from each injection to correct for heats of dilution and mixing. Dissociation constants were obtained from a nonlinear least-squares fit to a 1:1 binding model using MicroCal Origin.

β-wrapin AS10 [6] = test: ITC; 30 µM AS10 in the cell, peptides titrated from the syringe at approximately 10-fold higher concentrations; 30 °C; 20 mM sodium phosphate, pH 7.4, 50 mM NaCl; fit to a 1:1 binding model
[7] = peptide alone 25–100 µM (up to 100 µM)

PAP Str1(186−194): β-strand peptide, constituent segment 186−194 of PAP(185−208) (DFIATLGKL)
ThT fluorescence of peptide alone [1, 7]: concentration-dependent increase in ThT fluorescence within minutes to a few hours | Effect of added peptide on ThT time trace of PAP(248−286) (PAP(248−286)): ThT time traces exhibited additional phases of rapid growth | Effect of added peptide on ThT time trace of SEM1(86−107) (SEM1(86−107)): ThT time traces exhibited additional phases of rapid growth

MIC26(153−178): synthetic peptide of predicted β-hairpin-forming amyloidogenic segment 153−178 of MIC26 (QQAIVFAQVSGERLYDWGLRGYIVIE; UniProt Q9BUR5 153-178, looked up, fragment)
NMR signature of β-hairpin folding coupled to AS10 binding (1H–15N HSQC of 15N-AS10) (β-wrapin AS10 [2]): no change | Shape of ThT time course / kind of aggregates [1]: ThT fluorescence was high from the beginning | ThT [1]: + | AFM aggregate morphology [3]: fibrillar aggregates confirming amyloid formation were detected | Precipitate formation upon dissolution [4]: immediate precipitation

3-PGDH(298−319): synthetic peptide of predicted β-hairpin-forming amyloidogenic segment 298−319 of 3-PGDH (EIAVQFVDMVKGKSLTGVVNAQ; UniProt O43175 298-319, looked up, fragment)
NMR signature of β-hairpin folding coupled to AS10 binding (1H–15N HSQC of 15N-AS10) (β-wrapin AS10 [2]): no change | Shape of ThT time course / kind of aggregates [1]: can form both ThT-positive as well as ThT-negative aggregates | ThT [1]: + | Precipitate formation upon dissolution [4]: immediate precipitate formation upon dissolution

PAP Str2(200−208): β-strand peptide, constituent segment 200−208 of PAP(185−208)
ThT fluorescence of peptide alone [1, 7]: do not exhibit ThT fluorescene | Effect of added peptide on ThT time trace of PAP(248−286) (PAP(248−286)): induced increases in ThT fluorescence, albeit with somewhat longer lag-times | Effect of added peptide on ThT time trace of SEM1(86−107) (SEM1(86−107)): induced increases in ThT fluorescence, albeit with somewhat longer lag-times

NBPF1(928−946): synthetic peptide of predicted β-hairpin-forming amyloidogenic segment 928−946 of NBPF1 (RSAFYILEQQRVGWALDMD)
NMR signature of β-hairpin folding coupled to AS10 binding (1H–15N HSQC of 15N-AS10) (β-wrapin AS10 [2]): no change | Affinity to AS10 (dissociation constant KD) (β-wrapin AS10 [5]): heat signals were not observed | ThT fluorescence time course ([1]; 20–25 µM peptide): no increase in fluorescence intensity was detected | ThT fluorescence time course ([1]; peptide increased to 500–550 µM): remained ThT negative

CYP2W1(176−204): synthetic peptide of predicted β-hairpin-forming amyloidogenic segment 176−204 of CYP2W1 (SNITFALLFGRRFDYRDPVFVSLLGLIDE)
NMR signature of β-hairpin folding coupled to AS10 binding (1H–15N HSQC of 15N-AS10) (β-wrapin AS10 [2]): signature was also observed | NMR β-hairpin (β-wrapin AS10 [2]): + | Shape of ThT time course / kind of aggregates [1]: ThT fluorescence was high from the beginning | ThT [1]: + | AFM aggregate morphology [3]: fibrillar aggregates confirming amyloid formation were detected | Precipitate formation upon dissolution [4]: immediate precipitation

SEM1(86−107): semen amyloid peptide, fragment of semenogelin-1 (DLNALHKTTKSQRHLGGSQQLL) [reference compound]
ThT fluorescence of peptide alone ([1]; peptide alone 300 µM): did not exhibit ThT fluorescence | AFM aggregate morphology of individual peptide [3]: aggregates of amorphous shape

TTC5(335−361): synthetic peptide of predicted β-hairpin-forming amyloidogenic segment 335−361 of TTC5 (AVILGKVVFSLTTEEKVPFTFGLVDSD)
NMR signature of β-hairpin folding coupled to AS10 binding (1H–15N HSQC of 15N-AS10) (β-wrapin AS10 [2]): signature was observed | NMR β-hairpin (β-wrapin AS10 [2]): + | Kd (β-wrapin AS10 [5]; read-out: Affinity to AS10 (dissociation constant KD)): 4.7 ± 0.9 µM | ThT [1]: +

PAP(248−286): PAP fragment which forms functional amyloid in semen (GIHKQKEKSRLQGGVLVNEILNHMKRATQIPSYKKLIMY) [reference compound]
ThT fluorescence of peptide alone ([1]; peptide alone 500 µM): did not exhibit ThT fluorescence | AFM aggregate morphology of individual peptide [3]: aggregates of amorphous shape

NDUFS7(104−129) (from UniProt O75251 104-129) (peptide)
Kd (β-wrapin AS10 [6]): 4.7 µM

KDFIATLGKLSGLHGQDLFGIWSK [PAP(185−208)]
Kd (β-wrapin AS10 [6]): 39 µM

AVILGKVVFSLTTEEKVPFTFGLVDSD [TTC5(335−361)]
Kd (β-wrapin AS10 [6]): 4.7 µM
